The target of the data set is T1, Ec86 retron RT (Escherichia coli, UniProt P23070 P23070:1-320).
T1 sequence: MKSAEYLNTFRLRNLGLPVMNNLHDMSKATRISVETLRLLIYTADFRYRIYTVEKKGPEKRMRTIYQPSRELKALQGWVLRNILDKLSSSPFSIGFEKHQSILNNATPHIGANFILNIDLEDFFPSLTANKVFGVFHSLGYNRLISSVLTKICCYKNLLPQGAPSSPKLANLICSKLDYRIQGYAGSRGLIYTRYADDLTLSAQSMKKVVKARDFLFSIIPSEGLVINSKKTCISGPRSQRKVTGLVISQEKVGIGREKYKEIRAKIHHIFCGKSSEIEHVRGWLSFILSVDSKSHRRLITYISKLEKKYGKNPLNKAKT
As to the kind of experiment: msdDNA qPCR, 37 C 2 h. As to conditions: tags: N-terminal Strep tag.

Experimental: The Ec86 RT was co-expressed with the ncRNA substrate (final 100 nM) in a cell-free expression system) supplemented with dNTPs (final 0.3 mM). Expression constructs were codon-optimized for E. coli and contained an N-terminal single Strep tag. After incubation for 2 h at 37° C., the reaction was quenched by heat denaturation at 95° C. for 2 min, followed by treatment by RNase A for 30 min at 37° C. […] The resulting reverse transcription products, herein referred to as msdDNA, were diluted prior to qPCR to ensure msdDNA concentrations were within the linear range of detection. The amount of msdDNA was quantified by extrapolating values from a standard curve generated with a DNA template of known concentrations.

B1: Ec86 wild-type ncRNA (ssRNA)
RNA: GGAUGCGCACCCUUAGCGAGAGGUUUAUCAUUAAGGUCAACCUCUGGAUGUUGUUUCGGCAUCCUGCAUUGAAUCUGAGUUACUGUCUGUUUUCCUUGUUGGAACGGAGAGCAUCGCCUGAUGCUCUCCGAGCCAACCAGGAAACCCGUUUUUUCUGACGUAAGGGUGCGCAACUUUC
B1: the binding result is listed as “binds”.

Values taken from patent US20260132392, “GENE EDITING SYSTEMS COMPRISING REVERSE TRANSCRIPTASES” (Metagenomi, Inc., published 2026).
